Test results from US20030180306A1 (Pfizer, published 2003).

Biological target: T1, recombinant purified GDF-8 (UniProt O14793 267-375, limits assumed)
T1 sequence (looked up): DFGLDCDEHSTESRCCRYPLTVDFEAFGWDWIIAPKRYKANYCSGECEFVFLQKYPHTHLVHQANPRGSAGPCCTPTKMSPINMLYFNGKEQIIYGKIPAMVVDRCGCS
Experiment: cell-based or functional assay

IC50 for inhibition of GDF-8 (20 ng/ml) in the (CAGA)12 luciferase reporter gene assay, RD cells, purified GASP1-V5-His: ~3 nM
B1: mouse GASP1 cloned with a C-terminal V5-His tag (GASP1-V5-His) (other, not shown: small tags and cut ends)
chain: LPPIRYSHAGICPNDMNPNLWVDAQSTCKRECETDQECETYEKCCPNVCGTKSCVAARYMDVKGKKGPVGMPKEATCDHFMCLQQGSECDIWDGQPVCKCKDRCEKEPSFTCASDGLTYYNRCFMDAEACSKGITLSVVTCRYHFTWPNTSPPPPETTVHPTTASPETLGLDMAAPALLNHPVHQSVTVGETVSFLCDVVGRPRPELTWEKQLEDRENVVMRPNHVRGNVVVTNIAQLVIYNVQPQDAGIYTCTARNVAGVLRADFPLSVVRGGQARATSESSLNGTAFPATECLKPPDSEDCGEEQTRWHFDAQANNCLTFTFGHCHHNLNHFETYEACMLACMSGPLATCSLPALQGPCKAYVPRWAYNSQTGLCQSFVYGGCEGNGNNFESREACEESCPFPRGNQHCRACKPRQKLVTSFCRSDFVILGRVSELTEEQDSGRALVTVDEVLKDEKMGLKFLGREPLEVTLLHVDWTCPCPNVTVGETPLIIMGEVDGGMAMLRPDSFVGASSTRRVRKLREVMYKKTCDVLKDFLGLQ
